The values below come from patent US20080057519A1.

Assay [1] has as its target FLJ32028 with an HA epitope tag fused to the predicted C-terminal end of the protein (human) (UniProt Q6P9G4). Put plainly: flow cytometry on intact transfected 293-EBNA cells, streptavidin-PE detection.
In assay [2] the target is FLJ32028 with an HA epitope tag inserted at the predicted N-terminal end of the protein (human) (UniProt Q6P9G4). The description is as above.

Where only a bound is given, the exact number is not on record here.

For “biotinylated Rat Anti-HA antibody (Roche)”, the % of transfected GFP+ cells negative for HA in assay [1] is 85%. Besides, in assay [2], the % of transfected GFP+ cells positive for HA was more than 99%.
